# In patent US20220280618A1 (ADMINISTRATORS OF THE TULANE EDUCATIONAL FUND, published 2022):
# B1: MET6 peptide (synthetic, from methyltetrahydropteroyltriglutamate homocysteine methyltransferase) (peptide)
# peptide: PRIGGQRELKKITE
# notes: also called MEM
# B2: HuMAb 6.6K (anti-Met6) (antibody, V domains shown)
# VH: QVQLVESGGGVVQPGRSLRLSCAASGFNFISYGMHWVRQAPGKGLEWVALISYDGSNKYYADSVKGRFTISRDNSKNTLYLQMNSLRAEDTAVYYCATEAYVETAMVPQYWGQGTLVTVSS
# VL: SYELTQPPSVSVSPGQTARITCSGDALPKEYAYWYQQKSGQAPVVVIYEDSKRPSGIPERFSGSSSGTMATLTISGAQVEDEADYHCYSTDSSGNPVFGGGTKLTVL
# B3: HuMAb 1.10C (anti-MET6) (antibody, V domains shown)
# VH: EVQLVESGGGLVKPGGSLRLSCKASGFNFTNSWMSWVRQAPGKGLEWLGRIKSESDGGATRYAAPVTGRFSISRDDSRDMLFLQMNSLTTDDTAMYYCTTNKVTTNYWGQGTLVTVSS
# VL: DIVMTQSPVTLAVSLGERATINCKSSQSLLYSSDNENYLTWYQQKPGQPPKLLIYWASVRESGIPDRFIGSGSVTDFTLTINNVQAEDVAVYYCQQFRYTPLTFGQGTTLEIK
# notes: also called 1.100
# B4: HuMAb 1.B10 (anti-Met6) (antibody, V domains shown)
# VH: EVQLVQSGGGLVKPGGSLRLSCAASGFIFSNAWMNWVRQAPGKGLEWVGRIKRESDSGTTDYGAAVKGRFTISRDDSKYTLYLQMNSLKTDDTAVYYCTTGWADYWGQGTLVTVSS
# VL: LIQPPSVSVSPGQTARITCSGDALPNKYAYWYQQKPGQAPSVVMFRDNERPSGIPERFSGSSSGTTVTLTISGVQAEDESDFYCQSTDSNGAWVFGGGTKLTVL
# B5: HuMAb 6.11C (anti-Fba) (antibody, V domains shown)
# VH: QVQLVQSGAEVKKPGASVQVSCRTSGYTFINYFMHWVRQAPGQGLEWMGIINPNGGKTRYAQKFQGRLTVTRDTSTNTVYVELSNLRYEDTGLYFCARDPEGEVGFDYWGQGTQVTVSS
# VL: SHELTQPPSVSVSPGQTARITCSGDALSKQYAYWYQQKPGQAPVVVIYKDNERPSGIPERFSGSSSGTTVTLTITGVQAEDEADYYCQSTDTSRAYYVFGTGTKVTVL
# B6: Fba peptide (synthetic, from fructose-bisphosphate aldolase) (peptide)
# peptide: YGKDVKDLFDYAQE
# B7: HuMAb 1.11D (anti-Fba) (antibody, V domains shown)
# VH: EVQLVQSGGGLVQPGGSLRLSCSASGFTFRTYAMSWVRQAPGKGLQWVSVISRSGDTTYHTDSVKGRFTISRDNSRNALYLQLDSLRAEDTALYYCAKTGNMAVGDRRTNYSYYYMDVWGKGTTVTVSS
# VL: DIVMTQSPSTLSASVGDRVTITCRASQSIKYWLAWYQQKPGKAPKLLIYKASNLESGVPSRFSGSGSGTEFTLTISSLRPDDFATYYCQQYNSYPLTFGGGTVEIK
# Tests used:
# HuMAb 1.10C (anti-MET6) = biological target: B3; assay: competition ELISA: 1.10C mixed with free MET6 peptide and added to MET6 peptide-coated wells; the competitor is the coated MET6 peptide
# MET6-Biotin peptide [1] = biological target: T1, MET6-Biotin peptide (Candida albicans, not fully specified; C-terminal K-Biotin (PRIGGQRELKKITEPGGSGGSGK-Biotin)); assay: BLI (BLITz), btn-Met6 peptide on streptavidin tip, IgG in solution
# T1 construct: also called btn-Met6 peptide; MFT6-Biotin
# T1 peptide: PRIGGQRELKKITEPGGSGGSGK
# Protocol: (§1) Binding experiments were performed using a FortèBio BLITz Bi-layer interferometer at 25° C. […] Loaded sensors were dipped into serial dilutions of the cognate IgG.
# [2] = biological target: B6; assay: ELISA on peptide-coated wells, HRP goat anti-human IgG, absorbance at 450 nm
# [3] = biological target: B1; assay: as above
# MET6-Biotin peptide [4] = biological target: T1, MET6-Biotin peptide; assay: BLI (BLITz), btn-Met6 peptide on streptavidin tip, IgG in solution; BLITz run of Dec. 3, 2018
# MET6-Biotin peptide [5] = biological target: T1, MET6-Biotin peptide; assay: bio-layer interferometry (Octet), steady state analysis, met6-btn on streptavidin sensors
# MET6-Biotin peptide [6] = biological target: T1, MET6-Biotin peptide; assay: bio-layer interferometry (Octet), met6-btn loaded on streptavidin sensors, kinetic 1:1 fit
# MET6-Biotin peptide [7] = biological target: T1, MET6-Biotin peptide; assay: BLI (Octet HTX), kinetic 1:1 fit, biotinylated peptide on streptavidin sensor, IgG in solution; kinetic measurement (FIG. 4)
# MET6-Biotin peptide [8] = biological target: T1, MET6-Biotin peptide; assay: bio-layer interferometry (Octet), met6-btn loaded on streptavidin sensors, kinetic 1:1 fit; column head kdis(1/s)
# MET6-Biotin peptide [9] = biological target: T1, MET6-Biotin peptide; assay: BLI (Octet HTX), steady-state analysis, biotinylated peptide on streptavidin sensor, IgG in solution; steady-state measurement (FIG. 5)
# [10] = biological target: T2, full-length His-tagged recombinant Fba protein from C. albicans (Candida albicans, UniProt Q9URB4 2-359); assay: bio-layer interferometry (BLITz), His-Fba (C. albicans) loaded on an anti-penta-His sensor, antibody in the association step
# T2 construct: mature; also called His-Fba; whole length recombinant Fba (C. albicans); not shown: six-histidine (6-His) amino terminal tag from vector pRSET A
# T2 sequence (looked up): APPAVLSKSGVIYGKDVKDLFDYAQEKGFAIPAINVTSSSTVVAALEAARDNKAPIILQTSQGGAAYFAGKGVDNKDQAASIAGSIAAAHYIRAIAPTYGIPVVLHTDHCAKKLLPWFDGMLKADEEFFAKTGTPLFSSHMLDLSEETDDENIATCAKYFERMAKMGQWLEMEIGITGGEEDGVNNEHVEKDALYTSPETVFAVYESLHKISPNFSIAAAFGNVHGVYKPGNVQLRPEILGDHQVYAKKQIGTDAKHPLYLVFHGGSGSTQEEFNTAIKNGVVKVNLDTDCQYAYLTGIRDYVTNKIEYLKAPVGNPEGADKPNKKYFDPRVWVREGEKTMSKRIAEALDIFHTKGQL
# [11] = biological target: T3, full-length His-tagged recombinant Met6 protein from C. albicans (Candida albicans, UniProt P82610 2-767); assay: bio-layer interferometry (BLITz), His-Met6 (C. albicans) from bacterial supernatant loaded on an anti-penta-His sensor, antibody in the association step
# T3 construct: mature; also called His-Met6; whole length recombinant MET6; not shown: six-histidine (6-His) amino terminal tag from vector pRSET A
# T3 sequence (looked up): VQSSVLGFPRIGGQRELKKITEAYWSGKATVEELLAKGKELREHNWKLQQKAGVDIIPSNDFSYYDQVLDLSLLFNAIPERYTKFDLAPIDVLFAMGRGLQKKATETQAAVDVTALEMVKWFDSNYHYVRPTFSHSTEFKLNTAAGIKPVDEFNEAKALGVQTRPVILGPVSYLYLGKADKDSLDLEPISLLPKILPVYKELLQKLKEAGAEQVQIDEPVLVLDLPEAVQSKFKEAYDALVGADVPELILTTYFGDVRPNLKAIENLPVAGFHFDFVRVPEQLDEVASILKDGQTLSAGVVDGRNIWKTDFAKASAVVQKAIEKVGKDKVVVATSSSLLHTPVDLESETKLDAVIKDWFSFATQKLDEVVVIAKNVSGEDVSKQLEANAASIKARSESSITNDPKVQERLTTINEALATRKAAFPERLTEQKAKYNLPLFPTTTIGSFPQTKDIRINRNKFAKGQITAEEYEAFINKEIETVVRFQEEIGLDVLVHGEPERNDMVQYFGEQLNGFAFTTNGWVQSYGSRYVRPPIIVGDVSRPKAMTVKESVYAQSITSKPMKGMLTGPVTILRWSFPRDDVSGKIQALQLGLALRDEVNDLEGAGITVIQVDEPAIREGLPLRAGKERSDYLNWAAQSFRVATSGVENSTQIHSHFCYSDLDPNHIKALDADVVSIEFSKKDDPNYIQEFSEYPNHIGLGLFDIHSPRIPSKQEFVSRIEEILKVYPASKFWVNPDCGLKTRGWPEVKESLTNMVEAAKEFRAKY
# Fba-Biotin peptide [12] = biological target: T4, Fba-Biotin peptide (Candida albicans, not fully specified; C-terminal K-Biotin (YGKDVKDLFDYAQEGGSGGSGK-Biotin)); assay: BLI (BLITz), btn-Fba peptide on streptavidin tip, IgG in solution
# T4 construct: also called btn-Fba peptide
# T4 peptide: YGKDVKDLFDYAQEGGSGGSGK
# Protocol: as §1
# HuMAb 1.11D (anti-Fba) = biological target: B7; assay: competition ELISA: 1.11D mixed with free Fba peptide and added to Fba peptide-coated wells; the competitor is the coated Fba peptide
# Fba-Biotin peptide [13] = biological target: T4, Fba-Biotin peptide; assay: bio-layer interferometry (Octet), steady state analysis, Fba-btn on streptavidin sensors
# Fba-Biotin peptide [14] = biological target: T4, Fba-Biotin peptide; assay: bio-layer interferometry (Octet), Fba-btn at 10 ng/ml loaded on streptavidin sensors, kinetic 1:1 fit
# Fba-Biotin peptide [15] = biological target: T4, Fba-Biotin peptide; assay: BLI (Octet HTX), kinetic 1:1 fit, biotinylated peptide on streptavidin sensor, IgG in solution; kinetic measurement (FIG. 4)
# Fba-Biotin peptide [16] = biological target: T4, Fba-Biotin peptide; assay: BLI (Octet HTX), steady-state analysis, biotinylated peptide on streptavidin sensor, IgG in solution; steady-state measurement (FIG. 5)
# Fba-Biotin peptide [17] = biological target: T4, Fba-Biotin peptide; assay: bio-layer interferometry (Octet), Fba-btn at 10 ng/ml loaded on streptavidin sensors, kinetic 1:1 fit; column head kdis(1/s)
binder,measurement,setting,value
B1,IC50 (read off the curve),HuMAb 1.10C (anti-MET6),~2 µg/mL
B2,Kd,MET6-Biotin peptide [1],160 nM
same,koff,MET6-Biotin peptide [1],0.012 s⁻¹
same,kon,MET6-Biotin peptide [1],75000 M⁻¹ s⁻¹
B3,koff,MET6-Biotin peptide [1],0.0055 s⁻¹
same,kon,MET6-Biotin peptide [1],31000 M⁻¹ s⁻¹
same,binding result,[2],no binding
same,binding result,[3],binds
same,Kd,MET6-Biotin peptide [4],180 nM
same,Kd,MET6-Biotin peptide [5],310 nM
same,Kd,MET6-Biotin peptide [6],179 nM
same,kon,MET6-Biotin peptide [6],69500 M⁻¹ s⁻¹
same,Kd,MET6-Biotin peptide [7],~180 nM
same,koff,MET6-Biotin peptide [8],0.0124 s⁻¹
same,Kd,MET6-Biotin peptide [9],~310 nM
same,binding result,[10],no binding
same,binding result,[11],binds
B4,Kd,MET6-Biotin peptide [1],31 nM
same,koff,MET6-Biotin peptide [1],0.0064 s⁻¹
same,kon,MET6-Biotin peptide [1],210000 M⁻¹ s⁻¹
B5,Kd,Fba-Biotin peptide [12],120 nM
same,koff,Fba-Biotin peptide [12],0.06 s⁻¹
same,kon,Fba-Biotin peptide [12],490000 M⁻¹ s⁻¹
B6,IC50 (read off the curve),HuMAb 1.11D (anti-Fba),~4 µg/mL
B7,Kd,Fba-Biotin peptide [12],19.8 nM
same,koff,Fba-Biotin peptide [12],0.00073 s⁻¹
same,kon,Fba-Biotin peptide [12],38000 M⁻¹ s⁻¹
same,Kd,Fba-Biotin peptide [13],77 nM
same,Kd,Fba-Biotin peptide [14],58.5 nM
same,kon,Fba-Biotin peptide [14],111000 M⁻¹ s⁻¹
same,Kd,Fba-Biotin peptide [15],~58 nM
same,Kd,Fba-Biotin peptide [16],~77 nM
same,koff,Fba-Biotin peptide [17],0.00646 s⁻¹
